Results reported in patent publication US12378310 (MULTITUDE, dated 2025).

B1: FOLR1-Ab4 (antibody, V domains shown)
VH: QIQLVQSGPELKKPGETVKISCKASIYTFTDYSIQWVKQAPGKGLKWMGWINTETGEPTYADDFKGRFAFSLESSASTAFLQINNLKNEDTATYFCARMGYYGPKIMDYWGQGTSVTVSS
VL: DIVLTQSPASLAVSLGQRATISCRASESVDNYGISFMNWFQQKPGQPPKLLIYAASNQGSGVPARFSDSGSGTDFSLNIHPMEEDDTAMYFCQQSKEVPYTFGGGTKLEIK
notes: Monoclonal antibody from a hybridoma clone; V regions amplified with mouse Ig primers
B2: FOLR1-Ab20 (antibody, V domains shown)
VH: EVLLQQSGPELVKPGASVKIPCKASGYTFTDYNMDWVKQSHGKSLEWIGDINPNNGGTIYNQKFKGKATLTVDKSSSTAYMELRSLTSEDTAVYYCARKPYYGPRYFDVWGAGTTVTVSS
VL: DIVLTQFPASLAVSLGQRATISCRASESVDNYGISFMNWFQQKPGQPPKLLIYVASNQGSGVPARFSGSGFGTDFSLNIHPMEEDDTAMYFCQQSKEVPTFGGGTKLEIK
notes: as for B1
B3: FOLR1-Ab23 (antibody, V domains shown)
VH: B2 VH
VL: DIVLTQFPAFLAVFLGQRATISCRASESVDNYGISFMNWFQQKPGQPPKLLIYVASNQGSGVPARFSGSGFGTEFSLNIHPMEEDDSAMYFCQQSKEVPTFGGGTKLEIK
notes: as for B1
B4: FOLR1-Ab14 (antibody, V domains shown)
VH: B2 VH
VL: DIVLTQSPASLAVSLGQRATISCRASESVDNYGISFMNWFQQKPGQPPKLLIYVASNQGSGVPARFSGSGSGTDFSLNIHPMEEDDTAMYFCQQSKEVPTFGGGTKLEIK
notes: as for B1
B5: FOLR1-Ab1 (antibody, V domains shown)
VH: QVQLQQPGAELVRPGASVKLSCKASGYTFTSYWMNWVKQRPEQGLEWIGRINPYDSETHSNQKFKDKAILTVDKSSTTAYMQLSSLTSEDSAVYYCARSGGYAWFAYWGQGTLVTVSA
VL: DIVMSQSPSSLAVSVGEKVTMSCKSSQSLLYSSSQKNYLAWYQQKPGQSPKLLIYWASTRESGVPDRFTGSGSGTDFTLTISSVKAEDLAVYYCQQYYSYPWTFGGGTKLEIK
notes: as for B1

biological target: recombinant FOLR1 protein (rProtein) (Homo sapiens (Human), UniProt P15328 25-234, limits assumed); test: ELISA titration with varying concentrations of recombinant FOLR1 protein
Protocol: Antibodies were tested in an antigen binding assay using ELISA titration experiments.

recombinant FOLR1 protein (rProtein), sequence (P15328 25-234 limits assumed): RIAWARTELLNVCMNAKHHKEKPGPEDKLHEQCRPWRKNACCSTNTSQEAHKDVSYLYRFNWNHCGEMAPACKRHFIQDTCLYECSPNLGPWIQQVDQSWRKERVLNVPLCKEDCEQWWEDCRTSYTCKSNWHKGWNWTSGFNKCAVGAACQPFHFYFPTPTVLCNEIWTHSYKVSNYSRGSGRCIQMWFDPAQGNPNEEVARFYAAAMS

rProtein ELISA Affinity [nM]	Binder
0.78	B1
12.5	B2
6.25	B3
3.12	B4
0.39	B5
